Source: the DeepSol protein solubility set

experiment: soluble on expression in E. coli; label from the status in PepcDB or PDB records

| Sequence | soluble on expression in E. coli |
| --- | --- |
| MPEVRAERYIPAPPERVYRLAKDLEGLKPYLKEVESLEVVAREGARTRSRWVAVAMGKKVRWLEEEEWDDENLRNRFFSPEGDFDRYEGTWVFLPEGEGTRVVLTLTYELTIPIFGGLLRKLVQKLMQENVESLLKGLEERVLAASS | soluble |
| MPFDFETVLNRRHTNAVKWDVADDELPMWVADMDFETAPVIKQALIKRAQFGVFGYEEVPMAYYEAVADWWATEHNFRPQIEWLMFCTGVVPAISSIVRKMTAAGDNVLVQAPVYNIFYHSIENNGRHTLSSDLVARDASYAIDWDDLTKKLADPLTTMMILCNPQNPIGVVWSRATLQRLGELCLKYHVLVVADEIHCDLTLNGNAYTPFSSLTAPVAHNSISCISPSKTFNVAALHAATLIIPDAHVRALVSRGINNDELAEPNSFAIPASIAAYTEGHDWVAALRTKLAANQRQVQTYLTAELPQVKLVEAQATYLLWLDVSQVTTDSAALAAFIRQRTGLFLSAGDVYRGDGNRFLRLNVACPTTTLTDGLARLKAGITAYQQVQA | not soluble |
| MPFLPPLTPPTELYLGIQLPNPISILVNYLPVSQTPIETLRNLVYSCNINTLAIDEFMTWPSLLQPESTFRSYFELLVERGSIPAVYLEGVRQASNFVTVAQGLSVMTTVALSDPFACFATGLFLTCTGNHLDFLPISEKFWEMTPTLEAGHAVAEMVMYHISQLHTENARRWERSWRFVHPPSCVGQGDCYILLEAKLLRFKLLYSALLSSLLV | not soluble |
| MPFTLGQRWISDTESELGLGTVVAVDARTVTLLFPSTGENRLYARSDSPVTRVMFNPGDTITSHDGWQMQVEEVKEENGLLTYIGTRLDTEESGVALREVFLDSKLVFSKPQDRLFAGQIDRMDRFALRYRARKYSSEQFRMPYSGLRGQRTSLIPHQLNIAHDVGRRHAPRVLLADEVGLGKTIEAGMILHQQLLSGAAERVLIIVPETLQHQWLVEMLRRFNLRFALFDDERYAEAQHDAYNPFDTEQLVICSLDFARRSKQRLEHLCEAEWDLLVVDEAHHLVWSEDAPSREYQAIEQLAEHVPGVLLLTATPEQLGMESHFARLRLLDPNRFHDFAQFVEEQKNYRPVADAVAMLLAGNKLSNDELNMLGEMIGEQDIEPLLQAANSDSEDAQSARQELVSMLMDRHGTSRVLFRNTRNGVKGFPKRELHTIKLPLPTQYQTAIKVSGIMGARKSAEDRARDMLYPERIYQEFEGDNATWWNFDPRVEWLMGYLTSHRSQKVLVICAKAATALQLEQVLREREGIRAAVFHEGMSIIERDRAAAWFAEEDTGAQVLLCSEIGSEGRNFQFASHMVMFDLPFNPDLLEQRIGRLDRIGQAHDIQIHVPYLEKTAQSVLVRWYHEGLDAFEHTCPTGRTIYDSVYNDLINYLASPDQTEGFDDLIKNCREQHEALKAQLEQGRDRLLEIHSNGGEKAQALAESIEEQDDDTNLIAFAMNLFDIIGINQDDRGDNMIVLTPSDHMLVPDFPGLSEDGITITFDREVALAREDAQFITWEHPLIRNGLDLILSGDTGSSTISLLKNKALPVGTLLVELIYVVEAQAPKQLQLNRFLPPTPVRMLLDKNGNNLAAQVEFETFNRQLNAVNRHTGSKLVNAVQQDVHAILQLGEAQIEKSARALIDAARNEADEKLSAELSRLEALRAVNPNIRDDELTAIESNRQQVMESLDQAGWRLDALRLIVVTHQ | soluble |
| MPGALSHIRVLDLSRVLAGPWAGQILADLGAEVIKIERPGSGDDTRAWGPPFLKDAEGNDTSEAAYYLSANRNKKSVTVDFTQPEGQRIVRELAAKADILLENFKVGGLKAYGLDYESLKQVNPKLIYCSITGFGQSGPYAKRAGYDFMIQGLGGLMSLTGRADNEEGAGPVKVGVALTDILTGLYSSTAVLAALAHRDVSGIGQHIDMALLDVQVACLANQTLNYLTTGVPPRRLGNAHPNIVPYQDFPTADGDMILTVGNDSQFRKFAELADHPEWADDPRFATNKARVANREVLIPLIRQATVLHTTAEWILSLERAGVPCGPINDLAQVFADPQVQARGLRVELPHPLAGTVPQVASPIRLSETPVEYRNPPPTLGQHTDEVLETLLGLDAAALERLRDGKVI | not soluble |
| MPGIDIVIVNWNSGNQLRECLRSIGNLVGEAEPLTVTVVDNASCDGSADGLPEPSCPLRVIRNRANLGFGRASNLGAREGSADYLLFLNPDTRLHPGALSIPLGFMESETGRHVGICGVQCLDETGGVARCCARFPTAWRLVGQALGLDRLFPRWIPPHFLGEWPHDSDRDVDQVIGAFFFVRRAVFEQLGGFDERFFVYYEDLDFALRARRAGWGSRYLAGARIFHRGGGVSRQISARRLHYLTHSKLRYARKHFAGIDAFLVSAAVLLLEPLARSAYALGRGRPGEFADTWKAFGGLYASLCRPGENGRLEHHHHHH | not soluble |
| MPGKLLWGDIMELEAPLEESESQKKERQKSDRRKSRHHYDSDEKSETRENGVTDDLDAPKAKKSKMKEKLNGDTEEGFNRLSDEFSKSHKSRRKDLPNGDIDEYEKKSKRVSSLDTSTHKSSDNKLEETLTREQKEGAFSNFPISEETIKLLKGRGVTYLFPIQVKTFGPVYEGKDLIAQARTGTGKTFSFAIPLIERLQRNQETIKKSRSPKVLVLAPTRELANQVAKDFKDITRKLSVACFYGGTSYQSQINHIRNGIDILVGTPGRIKDHLQSGRLDLSKLRHVVLDEVDQMLDLGFAEQVEDIIHESYKTDSEDNPQTLLFSATCPQWVYKVAKKYMKSRYEQVDLVGKMTQKAATTVEHLAIQCHWSQRPAVIGDVLQVYSGSEGRAIIFCETKKNVTEMAMNPHIKQNAQCLHGDIAQSQREITLKGFREGSFKVLVATNVAARGLDIPEVDLVIQSSPPQDVESYIHRSGRTGRAGRTGICICFYQPRERGQLRYVEQKAGITFKRVGVPSTMDLVKSKSMDAIRSLASVSYAAVDFFRPSAQRLIEEKGAVDALAAALAHISGASSFEPRSLITSDKGFVTMTLESLEEIQDVSCAWKELNRKLSSNAVSQITRMCLLKGNMGVCFDVPTTESERLQAEWHDSDWILSVPAKLPEIEEYYDGNTSSNSRQRSGWSSGRSGRSGRSGGRSGGRSGRQSRQGSRSGSRQDGRRRSGNRNRSRSGGHKRSFD | soluble |
| MPGQQATKHESLLDQLSLKGKVVVVTGASGPKGMGIEAARGCAEMGAAVAITYASRAQGAEENVKELEKTYGIKAKAYKCQVDSYESCEKLVKDVVADFGQIDAFIANAGATADSGILDGSVEAWNHVVQVDLNGTFHCAKAVGHHFKERGTGSLVITASMSGHIANFPQEQTSYNVAKAGCIHMARSLANEWRDFARVNSISPGYIDTGLSDFVPKETQQLWHSMIPMGRDGLAKELKGAYVYFASDASTYTTGADLLIDGGYTTR | soluble |
| MPGSPRPAPSWVLLLRLLALLRPPGLGEACSCAPAHPQQHICHSALVIRAKISSEKVVPASADPADTEKMLRYEIKQIKMFKGFEKVKDVQYIYTPFDSSLCGVKLEANSQKQYLLTGQVLSDGKVFIHLCNYIEPWEDLSLVQRESLNHHYHLNCGCQITTCYTVPCTISAPNECLWTDWLLERKLYGYQAQHYVCMKHVDGTCSWYRGHLPLRKEFVDIVQP | soluble |
| MPGSRTYRKVDPPDVEQLGRSSWTLLHSVAASYPAQPTDQQKGEMKQFLNIFSHIYPCNWCAKDFEKYIRENAPQVESREELGRWMCEAHNKVNKKLRKPKFDCNFWEKRWKDGWDE | not soluble |
| MPGSTGKTRTAEAGETARRDQDSNSYVYGVVPADVELDPEARGVGDPPGRISLVRHGEIAALVSDIVLDRPLGRPDDLLAHQRLLDATAAEVPVLPFRFGAVVSDSEAVVEELLGPNHDDFLAALKELEGRAEYVVKGRYVERVVIGEVLAEDPEATRLREEIRGRPEEATWDARIQLGQMIGEAVAAKRDADTAALVDALAPKCAGVVVREPTHEQDAVHVAVLVDTDRQAEFEKILDEFGERWAGRIDLRLLGPLAPYDFVMAPGQGG | soluble |
| MPGYYKISHSWEYRRRTCQDDVLLEAVITSDTNLNTEKTLLQWLNDKNKNKGTNTVDYKDITCWYYGGVWLHYAINNNALSLYMHSSGEDAFDSLNYCAYEIAKTFYKNHSDISILWIEHPHKRNKLKET | not soluble |
